This is an account of results in patent publication US20120219551A1 (MacroGenics, published 2012).

Assay [1] addresses T1, CD16A (158F) (human, UniProt P08637 17-208).
T1 construct: extracellular domain; Soluble monomeric construct as told for the ch4D5 BIAcore assays of section 7.7
Briefly: off-rate ratio vs wild-type Fc (BIAcore per the filing's koff tables). A general note: SPR reads the build-up and loss of mass on a sensor chip optically.

The target of assay [2] is T2, CD32A (131H) (human, UniProt P12318 34-217).
T2 construct: extracellular domain; Soluble dimeric fusion as told for the ch4D5 BIAcore assays of section 7.7; also called FcγRIIA 131H; not shown: hinge-CH2-CH3 domain of human IgG2
T2 sequence (looked up): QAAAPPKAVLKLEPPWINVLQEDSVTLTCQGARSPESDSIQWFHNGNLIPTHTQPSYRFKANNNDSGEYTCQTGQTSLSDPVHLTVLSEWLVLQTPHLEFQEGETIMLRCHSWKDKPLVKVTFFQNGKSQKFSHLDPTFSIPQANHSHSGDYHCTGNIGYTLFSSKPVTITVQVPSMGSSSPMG
The description is as above.

The target in assay [3] is T3, CD32A (131R) (human, UniProt P12318 34-217).
T3 construct: extracellular domain; Soluble dimeric fusion as told for FcγRIIA in section 7.7 (there for 131H); also called FcγRIIA 131R; not shown: hinge-CH2-CH3 domain of human IgG2
T3 sequence (looked up): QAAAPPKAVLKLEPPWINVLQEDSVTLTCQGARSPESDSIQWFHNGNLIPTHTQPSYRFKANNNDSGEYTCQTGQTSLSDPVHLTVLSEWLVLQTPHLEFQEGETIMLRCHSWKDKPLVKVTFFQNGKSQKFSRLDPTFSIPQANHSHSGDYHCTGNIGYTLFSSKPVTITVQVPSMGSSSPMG
Described as above.

Assay [4] has as its target T4, CD32B (human, UniProt P31994 43-217).
T4 construct: extracellular domain; Soluble dimeric fusion as told for the ch4D5 BIAcore assays of section 7.7; also called FcγRIIB; FcγRII-B; not shown: hinge-CH2-CH3 domain of human IgG2
T4 sequence (looked up): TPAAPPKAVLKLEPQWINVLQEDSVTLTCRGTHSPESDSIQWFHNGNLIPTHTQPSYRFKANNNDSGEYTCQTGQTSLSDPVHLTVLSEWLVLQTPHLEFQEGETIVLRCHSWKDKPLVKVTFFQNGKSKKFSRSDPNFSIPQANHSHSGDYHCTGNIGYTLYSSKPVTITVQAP
The assay is described as above.

Assay [5] concerns the target T5, CD16A(V158) (human, UniProt P08637 17-208).
T5 construct: extracellular domain; Construct as told for the BIAcore assays of Section 7.7; also called FcγRIIIA 158V; 3aV158
Briefly: relative off-rate wt/variant; method not given (BIAcore elsewhere).

Assay [6] addresses T6, CD16A(F158) (human, UniProt P08637 17-208).
T6 construct: extracellular domain; Construct as told for the BIAcore assays of Section 7.7; also called 3aF158
Described as above.

The target in assay [7] is T7, CD32B-G2Ag (human, UniProt P31994 43-217).
T7 construct: extracellular domain; Soluble dimeric protein as told for Section 7.7; also called FcγRIIB-Fc fusion protein; 2bFcagl; not shown: human IgG2 hinge-CH2-CH3 domain
T7 sequence (looked up): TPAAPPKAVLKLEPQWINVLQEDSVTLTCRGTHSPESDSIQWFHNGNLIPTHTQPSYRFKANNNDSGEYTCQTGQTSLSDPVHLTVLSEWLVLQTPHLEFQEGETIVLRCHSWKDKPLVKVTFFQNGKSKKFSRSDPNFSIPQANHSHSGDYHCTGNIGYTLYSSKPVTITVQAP
The description is as above.

The target in assay [8] is T8, CD32A-G2Ag (human, UniProt P12318 34-217).
T8 construct: extracellular domain; Soluble dimeric protein as told for Section 7.7 (there 131H); also called FcγRIIA-Fc fusion protein; 2aFcagl; not shown: human IgG2 hinge-CH2-CH3 domain
T8 sequence (looked up): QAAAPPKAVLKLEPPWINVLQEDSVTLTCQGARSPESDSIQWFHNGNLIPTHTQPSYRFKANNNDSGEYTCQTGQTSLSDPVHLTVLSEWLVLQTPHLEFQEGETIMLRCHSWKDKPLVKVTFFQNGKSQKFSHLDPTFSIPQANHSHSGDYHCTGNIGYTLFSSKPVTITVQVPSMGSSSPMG
The assay is described as above.

Assay [9] deals with T9, CD16A (158V) (human, UniProt P08637 17-208).
T9 construct: extracellular domain; Soluble monomeric construct as told for the ch4D5 BIAcore assays of section 7.7; also called FcγRIIIA 158V; FcγRIIIA V158
T9 sequence (P08637 17-208 F176V): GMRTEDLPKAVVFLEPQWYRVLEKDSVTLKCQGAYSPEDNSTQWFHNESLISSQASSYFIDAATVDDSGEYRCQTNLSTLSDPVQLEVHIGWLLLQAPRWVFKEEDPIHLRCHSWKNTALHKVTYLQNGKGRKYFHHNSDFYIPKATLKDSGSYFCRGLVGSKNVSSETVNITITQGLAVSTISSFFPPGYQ
Briefly: off-rate ratio vs wild-type Fc (BIAcore per the filing's koff tables).

T1 sequence (P08637 17-208): as the sequence (P08637 17-208 F176V) above, with V160F counted along it
T6 sequence (P08637 17-208): as the sequence (P08637 17-208 F176V) above, with V160F counted along it
T5 sequence (P08637 17-208 F176V): as the sequence (P08637 17-208 F176V) above

B1: ch4D5 Fc variant L235P, F243L, R292P, Y300L, P396L (antibody)
heavy: QVQLQQSGPELVKPGASLKLSCTASGFNIKDTYIHWVKQRPEQGLEWIGRIYPTNGYTRYDPKFQDKATITADTSSNTAYLQVSRLTSEDTAVYYCSRWGGDGFYAMDYWGQGASVTVSSASTKGPSVFPLAPSSKSTSGGTAALGCLVKDYFPEPVTVSWNSGALTSGVHTFPAVLQSSGLYSLSSVVTVPSSSLGTQTYICNVNHKPSNTKVDKRVEPKSCDKTHTCPPCPAPELPGGPSVFLLPPKPKDTLMISRTPEVTCVVVDVSHEDPEVKFNWYVDGVEVHNAKTKPPEEQYNSTLRVVSVLTVLHQDWLNGKEYKCKVSNKALPAPIEKTISKAKGQPREPQVYTLPPSRDELTKNQVSLTCLVKGFYPSDIAVEWESNGQPENNYKTTPLVLDSDGSFFLYSKLTVDKSRWQQGNVFSCSVMHEALHNHYTQKSLSLSPGK
light: DIVMTQSHKFMSTSVGDRVSITCKASQDVNTAVAWYQQKPGHSPKLLIYSASFRYTGVPDRFTGSRSGTDFTFTISSVQAEDLAVYYCQQHYTTPPTFGGGTKVEIKRTVAAPSVFIFPPSDEQLKSGTASVVCLLNNFYPREAKVQWKVDNALQSGNSQESVTEQDSKDSTYSLSSTLTLSKADYEKHKVYACEVTHQGLSSPVTKSFNRGEC
notes: One of the series of variants of ch4D5-FcMT2
As to B1, the “Wild-Type Koff/Mutant Koff” value in assay [1] is 2.5; in assay [2], 0.7; in assay [3] it was 0.2; in assay [4], 0.2.

B2: ch4D5 Fc Variants 19 and 20 (L235V, F243L, R292P, Y300L, P396L) (antibody)
heavy: QVQLQQSGPELVKPGASLKLSCTASGFNIKDTYIHWVKQRPEQGLEWIGRIYPTNGYTRYDPKFQDKATITADTSSNTAYLQVSRLTSEDTAVYYCSRWGGDGFYAMDYWGQGASVTVSSASTKGPSVFPLAPSSKSTSGGTAALGCLVKDYFPEPVTVSWNSGALTSGVHTFPAVLQSSGLYSLSSVVTVPSSSLGTQTYICNVNHKPSNTKVDKRVEPKSCDKTHTCPPCPAPELVGGPSVFLLPPKPKDTLMISRTPEVTCVVVDVSHEDPEVKFNWYVDGVEVHNAKTKPPEEQYNSTLRVVSVLTVLHQDWLNGKEYKCKVSNKALPAPIEKTISKAKGQPREPQVYTLPPSRDELTKNQVSLTCLVKGFYPSDIAVEWESNGQPENNYKTTPLVLDSDGSFFLYSKLTVDKSRWQQGNVFSCSVMHEALHNHYTQKSLSLSPGK
light: DIVMTQSHKFMSTSVGDRVSITCKASQDVNTAVAWYQQKPGHSPKLLIYSASFRYTGVPDRFTGSRSGTDFTFTISSVQAEDLAVYYCQQHYTTPPTFGGGTKVEIKRTVAAPSVFIFPPSDEQLKSGTASVVCLLNNFYPREAKVQWKVDNALQSGNSQESVTEQDSKDSTYSLSSTLTLSKADYEKHKVYACEVTHQGLSSPVTKSFNRGEC
notes: copies: 2 + 2
On to B2, for which the “Koff ratio (wt/mut)” value in assay [5] amounted to 5.3 wt/mut; in assay [6], 4.5 wt/mut; in assay [7], 0.5 wt/mut; in assay [8] it was 1.3 wt/mut.

B3: ch4D5 Fc variant L235T, F243L, R292P, Y300L, P396L (antibody)
heavy: QVQLQQSGPELVKPGASLKLSCTASGFNIKDTYIHWVKQRPEQGLEWIGRIYPTNGYTRYDPKFQDKATITADTSSNTAYLQVSRLTSEDTAVYYCSRWGGDGFYAMDYWGQGASVTVSSASTKGPSVFPLAPSSKSTSGGTAALGCLVKDYFPEPVTVSWNSGALTSGVHTFPAVLQSSGLYSLSSVVTVPSSSLGTQTYICNVNHKPSNTKVDKRVEPKSCDKTHTCPPCPAPELTGGPSVFLLPPKPKDTLMISRTPEVTCVVVDVSHEDPEVKFNWYVDGVEVHNAKTKPPEEQYNSTLRVVSVLTVLHQDWLNGKEYKCKVSNKALPAPIEKTISKAKGQPREPQVYTLPPSRDELTKNQVSLTCLVKGFYPSDIAVEWESNGQPENNYKTTPLVLDSDGSFFLYSKLTVDKSRWQQGNVFSCSVMHEALHNHYTQKSLSLSPGK
light: DIVMTQSHKFMSTSVGDRVSITCKASQDVNTAVAWYQQKPGHSPKLLIYSASFRYTGVPDRFTGSRSGTDFTFTISSVQAEDLAVYYCQQHYTTPPTFGGGTKVEIKRTVAAPSVFIFPPSDEQLKSGTASVVCLLNNFYPREAKVQWKVDNALQSGNSQESVTEQDSKDSTYSLSSTLTLSKADYEKHKVYACEVTHQGLSSPVTKSFNRGEC
notes: as for B1
As to B3, the “Wild-Type Koff/Mutant Koff” value in assay [1] was 2.8; in assay [2], 0.9; in assay [3] it was 0.3; in assay [4], 0.3; in assay [9], 4.2.
